This is an account of results in paper PMC4572887, “GnT1IP-L specifically inhibits MGAT1 in the Golgi via its luminal domain” (eLife, 2015).

Data set [1] concerns the molecule itself. Kind of data set: FRET or BRET; COS-7 cells stably expressing GnT1IP-L-mVen, co-transfected with GnT1IP-L-mChe and MGAT1-HA as competitor, with or without 40 µM chloroquine for 4 or 16 hr; FRET efficiency by acceptor bleaching.
In data set [2] the target is T1, human MGAT1-mChe (human, UniProt P26572 1-445).
T1 construct: N-acetylglucosaminyltransferase MGAT1, human, full-length cDNA clone; also called GlcNAc-TI; GnT-1; source: COS-7 or Lec1 CHO cells, transiently transfected; in cells; not shown: monomeric mCherry (mChe), C-terminal, kept
T1 sequence (looked up): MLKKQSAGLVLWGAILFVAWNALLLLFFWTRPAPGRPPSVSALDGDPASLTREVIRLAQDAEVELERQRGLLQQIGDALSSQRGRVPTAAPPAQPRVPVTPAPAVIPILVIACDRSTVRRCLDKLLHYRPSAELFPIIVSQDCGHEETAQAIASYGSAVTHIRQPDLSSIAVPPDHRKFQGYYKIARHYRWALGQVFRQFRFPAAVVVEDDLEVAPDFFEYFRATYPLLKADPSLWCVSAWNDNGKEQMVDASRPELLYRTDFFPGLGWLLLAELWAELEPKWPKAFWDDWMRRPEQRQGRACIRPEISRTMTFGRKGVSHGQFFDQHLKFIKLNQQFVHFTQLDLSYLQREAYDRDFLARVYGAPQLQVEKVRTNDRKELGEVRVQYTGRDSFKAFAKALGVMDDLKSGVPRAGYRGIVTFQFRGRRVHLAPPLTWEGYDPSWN
Kind of data set: FRET or BRET; acceptor-bleaching FRET microscopy on fixed cells, mVen donor and mChe acceptor; COS-7 cells stably expressing GnT1IP-L-mVen, transiently transfected with the mChe-tagged partner; untreated controls, recovery 4 hr after removal of nocodazole, and 40 µM chloroquine for 4 or 16 hr. To be noted: partners not purified. Background: In BRET a luciferase serves as donor, and the signal depends on an acceptor being close.

Data set [3] concerns the molecule itself. The data set is described as above.

B1: Mouse GnT1IP-L-mVen (natural protein, UniProt Q9D4R2-2 1-417, looked up)
chain: MCLGESVGDLRTVATAPWEGEQARGVKDAGSVPVQPGVGSDAATMKAKNVNLLFAFVAVLLFGFSCFCISRMNQTNNQLINCRNHVLEFKEIMLRLKNKSENHHQDLMQVLYQMKRKAAHTTRSSGNFLEKKGSILSQHETLPNQFEVLKYFLPHLRTAGKLYPAIATSKGRAGVSFALGISTINRGNHTYLKQTLTSVLSRMTPEEEEDSVVIVSVADTDESYLKSVVRMVKTKFRKQVQSGVLEVISIPTLFYPQTLLDKKTKTDSESWQIKQVLDFCILMLYAQPKATYYLQLEDDIVAKKMYFTKMKDFVNSLTSKNWFFIEFSVLGFIGKLFRSKDLTDFVHFFLMFYETKPIDILLDDIFLIRVCISGEPVRSCLQRKKGFRIQYRPSLFQHVGTQSSFPGREQHLKDNYY
notes: GnT1IP-L, mouse, the long form of 417 aa (GnT1IP-S with 44 additional N-terminal amino acids), GenBank HM067443; In the homomer FRET experiments the second copy carried C-terminal monomeric mCherry (GnT1IP-L-mChe) instead of mVen; it is written as the same molecule; also called MGAT4D (long form); source: COS-7 or Lec1 CHO cells stably expressing it, or COS-7 cells transiently transfected; in …
In the case of B1, the “fold increase of homomer FRET with chloroquine, MGAT1-HA co-expressed as competitor” value in data set [1] was about 2 fold. The “FRET efficiency (untreated control)” value in data set [2] turned out to be 38%; in data set [3], 32%.
